Where two headings read alike, the source gives them in different places. Some results are limits rather than exact numbers.

5 molecules from patent publication US20170224837A1 can be followed below.

The target in assay [1] is human Trop-2 (EGP-1, TACSTD2) on human tumor cells or tissues (human) (UniProt P09758). The assay can be described thus: cell-based or functional assay.
Assay [2] has as its target rhTrop-2/TACSTD2 (Sino Biological, Inc.), recombinant human Trop-2 immobilized on CM5 chip (human) (UniProt P09758). As to the kind of experiment: SPR (BIACORE), low-density recombinant human Trop-2 chip, three runs. On the technique in general: SPR reads the build-up and loss of mass on a sensor chip optically.
Assay [3] deals with recombinant human neonatal receptor (FcRn) (human) (UniProt P55899). As to the kind of experiment: SPR (BIACORE), FcRn chip.
Sequence of recombinant human neonatal receptor (FcRn) (human) (P55899 24-297 limits assumed): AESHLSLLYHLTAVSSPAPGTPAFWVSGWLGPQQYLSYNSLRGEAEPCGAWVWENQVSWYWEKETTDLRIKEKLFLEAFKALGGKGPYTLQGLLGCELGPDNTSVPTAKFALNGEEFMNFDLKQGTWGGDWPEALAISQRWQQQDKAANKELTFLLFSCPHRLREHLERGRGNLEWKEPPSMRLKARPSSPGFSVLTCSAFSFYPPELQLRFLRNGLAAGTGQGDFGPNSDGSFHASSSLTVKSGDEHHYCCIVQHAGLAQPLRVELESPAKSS
For assay [4] the target is unchanged. The assay can be described thus: SPR (BIACORE), low-density FcRn chip, three runs at 400 to 25 nM.
For assay [5], the target named is human Trop-2 (EGP-1, TACSTD2) on human tumor cells or tissues (human) (UniProt P09758). As to the kind of experiment: cell binding assay; cell line not stated.
For assay [6], the target named is rhTrop-2/TACSTD2 (Sino Biological, Inc.), recombinant human Trop-2 immobilized on CM5 chip (human) (UniProt P09758). The assay can be described thus: SPR (BIACORE), Trop-2 chip.
Sequence of rhTrop-2/TACSTD2 (Sino Biological, Inc.), recombinant human Trop-2 immobilized on CM5 chip (human) (P09758 27-274 limits assumed): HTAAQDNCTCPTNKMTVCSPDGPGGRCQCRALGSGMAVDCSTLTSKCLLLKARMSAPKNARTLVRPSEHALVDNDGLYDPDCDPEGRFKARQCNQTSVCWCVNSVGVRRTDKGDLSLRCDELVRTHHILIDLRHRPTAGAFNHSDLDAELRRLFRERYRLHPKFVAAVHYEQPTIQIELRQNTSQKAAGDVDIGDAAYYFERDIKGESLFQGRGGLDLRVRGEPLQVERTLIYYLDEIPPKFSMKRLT
The target of assay [7] is human Trop-2 (EGP-1, TACSTD2) on human tumor cells or tissues (human) (UniProt P09758). As to the kind of experiment: cell binding on NCI-N87 cells, anti-mouse-HRP, luminescence.
Assay [8] has the same target. As to the kind of experiment: cell-based or functional assay. This is another data set of the same source.
Assay [9] addresses Recombinant human Trop-2 with a His-tag (Sino Biological, Inc., Cat#10428-H09H) (human) (UniProt P09758). As to the kind of experiment: ELISA on Ni-NTA strips coated with His-tagged recombinant human Trop-2.

Sequence of human Trop-2 (EGP-1, TACSTD2) on human tumor cells or tissues (human) (P09758 27-323): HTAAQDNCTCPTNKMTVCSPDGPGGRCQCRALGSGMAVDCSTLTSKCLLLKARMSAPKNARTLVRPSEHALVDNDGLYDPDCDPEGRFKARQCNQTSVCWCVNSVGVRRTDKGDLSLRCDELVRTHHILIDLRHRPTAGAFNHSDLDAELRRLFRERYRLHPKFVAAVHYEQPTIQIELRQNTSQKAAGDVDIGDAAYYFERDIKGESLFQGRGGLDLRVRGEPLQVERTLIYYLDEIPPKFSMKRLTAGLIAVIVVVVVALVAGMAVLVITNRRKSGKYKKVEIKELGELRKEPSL
Sequence of Recombinant human Trop-2 with a His-tag (Sino Biological, Inc., Cat#10428-H09H) (human) (P09758 27-274 limits assumed): as the sequence (P09758 27-274 limits assumed) above

In the case of “Sacituzumab govitecan (IMMU-132, also known as hRS7-CL2A-SN-38) (antibody)”, in [1], the ADCC, specific lysis of MDA-MB-468 (4-h LDH release, E:T 50:1, 33.3 nM) was determined as 8.6%; the Median fluorescence intensity of anti-rH2AX-AF488 staining (dsDNA breaks), HCC1806 (Trop-2+) is 546 MFI; the decrease of ADCC relative to hRS7 (MDA-MB-468, NIH:OVCAR-3, BxPC-3) was > 60%; the γH2AX induction in BxPC-3, Mean Fluorescence Intensity stood at 5350 MFI. This molecule showed a γH2AX induction in BxPC-3, Percent Positive in [1] of 69%. For the same molecule, the Kd in assay [2] worked out at 0.26 nM. In addition, the fold lower average binding level than hRS7 in assay [3] amounted to 2 fold. For the same molecule, the Kd in [4] worked out at 192 nM. For the same molecule, the Kd in assay [5] came to 1.2 nM. Further, in assay [6], the fold improvement of KD against naked hRS7 turned out to be 2 fold.

In assay [7], “MAB650 (murine monoclonal antibody against human Trop-2, R&D Systems)” came in with a BMax (relative luminescent units) of 6020, a Kd of 0.49 nM and a reduction of maximum binding (Bmax) against RS7 of 50%.

Consider “162-46.2 (murine monoclonal antibody against human Trop-2, hybridoma ATCC HB-187)”, for which, in assay [7], the BMax (relative luminescent units) turned out to be 8470, the Kd came out at 0.52 nM and the reduction of maximum binding (Bmax) against RS7 worked out at 25%.

B1: hA20-SN-38 (anti-CD20 hA20 / veltuzumab conjugated to SN-38), non-binding control conjugate (antibody, INN chains, looked up, V domains shown, part only)
VH: QVQLQQSGAEVKKPGSSVKVSCKASGYTFTSYNMHWVKQAPGQGLEWIGAIYPGMGDTSYNQKFKGKATLTADESTNTAYMELSSLRSEDTAFYYCARSTYYGGDWYFDVWGQGTTVTVSS
VL: DIQLTQSPSSLSASVGDRVTMTCRASSSVSYIHWFQQKPGKAPKPWIYATSNLASGVPVRFSGSGSGTDYTFTISSLQPEDIATYYCQQWTSNPPTFGGGTKLEIKR
modifications: SN-38 via CL2A linker
Take B1: in assay [8], the γH2AX induction in BxPC-3, Mean Fluorescence Intensity was 2250 MFI and the γH2AX induction in BxPC-3, Percent Positive was 12.7%.

B2: humanized RS7 (hRS7) anti-Trop-2 antibody, hRS7 IgG (antibody, INN chains, looked up, V domains shown, part only)
VH: QVQLQQSGSELKKPGASVKVSCKASGYTFTNYGMNWVKQAPGQGLKWMGWINTYTGEPTYTDDFKGRFAFSLDTSVSTAYLQISSLKADDTAVYFCARGGFGSSYWYFDVWGQGSLVTVSS
VL: DIQLTQSPSSLSASVGDRVSITCKASQDVSIAVAWYQQKPGKAPKLLIYSASYRYTGVPDRFSGSGSGTDFTLTISSLQPEDFAVYYCQQHYITPLTFGAGTKVEIK
As for B2, in assay [8], the ADCC, specific lysis of BxPC-3 by PBMC (E:T 100:1, 33.3 nM) amounted to 8.5%. In [8], this molecule yielded an ADCC, specific lysis of MDA-MB-468 (4-h LDH release, E:T 50:1, 33.3 nM) of 29.8%. Moreover, the Kd in assay [2] amounted to 0.51 nM; in assay [4], 92.4 nM; in assay [9], 0.3 nM.

For orientation: Kd means the constant that tells how readily two partners part at equilibrium.
